Where a chain is given by its changes, count along the chain named. Names may count otherwise.
B1: humanized T84.66 antibody M5A (antibody, V domains shown)
VH: EVQLVESGGGLVQPGGSLRLSCAASGFNIKDTYMHWVRQAPGKGLEWVARIDPANGNSKYADSVKGRFTISADTSKNTAYLQMNSLRAEDTAVYYCAPFGYYVSDYAMAYWGQGTLVTVSS
VL: DIQLTQSPSSLSASVGDRVTITCRAGESVDIFGVGFLHWYQQKPGKAPKLLIYRASNLESGVPSRFSGSGSRTDFTLTISSLQPEDFATYYCQQTNEDPYTFGQGTKVEIK
notes: For the immunoreactivity assay the antibody was labelled with 131I; also called M5A mAb; 131I-M5A
B2: humanized T84.66 antibody M5B (antibody, V domains shown)
VH: B1 VH with A61V, D62P, S63K, V64F, K65Q, F68A
VL: B1 VL
notes: Expressed in NS0 cells as an intact antibody with constant regions of a human IgG and a kappa light chain; For the immunoreactivity assay the antibody was labelled with 131I; also called M5B mAb

Tests used:
[1] = target: T1, carcinoembryonic antigen (CEA) (human, UniProt P06731 35-685, biotinylated with EZ-Link Sulfo-NHS-LC-Biotin for the SPR assay); test: SPR, Biacore 1000; biotinylated CEA on SA chip, antibody injected at 3.12-100 nM, bivalent analyte model
T1 construct: Purified CEA; biotinylated and immobilised on a streptavidin chip for SPR, unlabelled in the immunoreactivity assay; also called purified CEA; CEA-biotin
T1 sequence (looked up): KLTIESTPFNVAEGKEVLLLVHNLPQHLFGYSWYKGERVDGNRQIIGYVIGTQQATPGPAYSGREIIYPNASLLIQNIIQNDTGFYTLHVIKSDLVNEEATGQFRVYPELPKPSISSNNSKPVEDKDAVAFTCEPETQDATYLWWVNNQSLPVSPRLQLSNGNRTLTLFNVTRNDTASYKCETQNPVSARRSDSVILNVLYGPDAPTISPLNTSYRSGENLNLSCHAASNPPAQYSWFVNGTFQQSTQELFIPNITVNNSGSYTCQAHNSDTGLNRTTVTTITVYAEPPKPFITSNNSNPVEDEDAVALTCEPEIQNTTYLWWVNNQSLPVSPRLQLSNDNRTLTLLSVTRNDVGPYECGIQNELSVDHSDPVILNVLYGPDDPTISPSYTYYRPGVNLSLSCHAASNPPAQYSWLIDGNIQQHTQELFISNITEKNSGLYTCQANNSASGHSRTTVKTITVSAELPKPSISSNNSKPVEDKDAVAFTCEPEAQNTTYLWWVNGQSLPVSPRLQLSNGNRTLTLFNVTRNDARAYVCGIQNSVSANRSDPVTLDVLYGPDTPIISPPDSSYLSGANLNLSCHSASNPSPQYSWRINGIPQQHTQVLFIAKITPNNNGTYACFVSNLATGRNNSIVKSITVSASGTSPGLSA
Experimental: (§1) The binding affinity of the antibodies to purified CEA was determined by surface plasmon resonance (SPR) on a Biacore 1000 (Biacore AB, Uppsala, SW). CEA was biotinylated using the EZ-Link Sulfo-NHS-LC-Biotin kit (Pierce, Rockford, Ill.) and immobilized to a SA biosensor chip (Biacore Inc.) in HBS buffer. A series of increasing antibody concentrations (3.12, 6.25, 12.5, 25, 50, and 100 nM) were injected over a low density (175 RU) of the immobilized CEA-biotin for the association and dissociation phase, with regeneration by a single pulse of 6 M GuHCl. The data were analyzed by BIAevaluation (v3.0) software using the bivalent analyte model to calculate the KA=kₒₙ/koff. Antibody concentrations were determined by amino acid analysis.

[2] = target: T1, carcinoembryonic antigen (CEA); test: SPR, Biacore 1000; biotinylated CEA on SA chip, antibody injected at 3.12-100 nM, bivalent analyte model; KA = kon/koff
Experimental: as §1

Binder	koff [1] [s⁻¹]	kon [1] [M⁻¹ s⁻¹]	Ka [2] [M⁻¹]
B1	3.01e-05	330000	1.1e+10
B2	2.56e-05	488000	1.9e+10
